From patent publication US20170037103A1 (University of California, published 2017)
Bridges are numbered along the chain shown (N, C = ends). Where no end group is shown, it is not given here. [ ]: non-standard residue; d: D form. The star is where a group is joined. PalS‑X = 3,5-bis(methyl-S-cysteinyl)-1-(methyl-S-palmityl)-benzene joining the two Cys; Ida^NHPal = iminodiacetic acid mono-N-palmityl amide, CCCCCCCCCCCCCCCCNC(=O)CNCC(=O)*; dPEG12 = 40-amino-4,7,10,13,16,19,22,25,28,31,34,37-dodecaoxotetradecanoic acid; Oic = O=C(O)[C@@H]1C[C@@H]2CCCC[C@@H]2N1; Palmitoyl = CCCCCCCCCCCCCCCC(=O)*; Tic = O=C(O)[C@@H]1Cc2ccccc2CN1; Aib = CC(C)(N)C(=O)O; Ahx = NCCCCCC(=O)O

T1: human neuromedin U receptor NMUR1 (human, UniProt Q9HB89 1-426)
T1 sequence (looked up): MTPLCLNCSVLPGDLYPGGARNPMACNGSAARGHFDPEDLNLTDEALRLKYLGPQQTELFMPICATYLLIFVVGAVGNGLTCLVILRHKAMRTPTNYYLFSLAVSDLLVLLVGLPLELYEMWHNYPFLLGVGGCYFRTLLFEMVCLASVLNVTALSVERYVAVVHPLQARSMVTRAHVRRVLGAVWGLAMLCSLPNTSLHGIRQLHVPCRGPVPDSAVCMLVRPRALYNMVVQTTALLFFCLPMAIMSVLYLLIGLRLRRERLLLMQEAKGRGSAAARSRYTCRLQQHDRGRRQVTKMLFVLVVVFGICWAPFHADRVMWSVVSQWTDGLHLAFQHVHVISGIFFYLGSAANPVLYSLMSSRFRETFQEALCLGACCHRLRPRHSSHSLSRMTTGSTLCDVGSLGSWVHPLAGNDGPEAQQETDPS


How the values were obtained:
[1] = biological target: T1, human neuromedin U receptor NMUR1; test: cell-based or functional assay
[2] = biological target: T2, human neuromedin U receptor NMUR2 (human, UniProt Q9GZQ4 1-415); test: told from the calcium mobilization assay on HEK293 cells expressing the receptor; no direct binding assay
T2 construct: whole, on cells; also called neuromedin U 2 receptor; HEK-NMU2
Experimental: To test whether neuromedin U can be modified/derivatized to yield truncated bioactive compound(s) that may be useful as therapeutics, we synthesized a small library (25 peptides) of hNMU analogs utilizing various stabilization protocols, including: cyclization, lipidation, introduction of α,α-disubstituted and N-methylated amino acids, retro-inverso-approach, and combination of such (see Table 1). Subsequently all analogues were tested against human neuromedin U receptors (NMUR1 and NMUR2) in calcium mobilization assay (collaboration with Dr Gary Willars, University of Leicester, UK).
HEK293 cells expressing either the neuromedin U 1 receptor or neuromedin U 2 receptor (HEK-NMU1 and HEK-NMU2 respectively) were grown to approximately 90% confluence in ELISA strip plates (96-well format) pre-coated with poly-D-lysine (0.1% w/v) and loaded for 45 min at 37° C. with 2 iM fluo-4-AM in Krebs'-HEPES buffer with bovine serum albumin (KHB-BSA; composition: 10 mM HEPES; 4.2 mM NaHCO₃; 11.7 mM D-glucose; 1.18 mM MgSO₄.7H₂O; 1.18 mM KH₂PO₄; 4.69 mM KCl; 118 mM NaCl; 1.3 mM CaCl₂.2H₂O; 0.1% (w/v) BSA; pH 7.4). Monolayers were then washed and equilibrated for 5 min at 37° C. in 100 il KHB-BSA for subsequent recording of fluorescence as an index of intracellular [Ca²⁺] ([Ca²⁺]ᵢ) using a microplate reader (NOVOstar; BMG LABTECH, Aylesbury, U.K.). […]

T2 sequence (Q9GZQ4 whole entry): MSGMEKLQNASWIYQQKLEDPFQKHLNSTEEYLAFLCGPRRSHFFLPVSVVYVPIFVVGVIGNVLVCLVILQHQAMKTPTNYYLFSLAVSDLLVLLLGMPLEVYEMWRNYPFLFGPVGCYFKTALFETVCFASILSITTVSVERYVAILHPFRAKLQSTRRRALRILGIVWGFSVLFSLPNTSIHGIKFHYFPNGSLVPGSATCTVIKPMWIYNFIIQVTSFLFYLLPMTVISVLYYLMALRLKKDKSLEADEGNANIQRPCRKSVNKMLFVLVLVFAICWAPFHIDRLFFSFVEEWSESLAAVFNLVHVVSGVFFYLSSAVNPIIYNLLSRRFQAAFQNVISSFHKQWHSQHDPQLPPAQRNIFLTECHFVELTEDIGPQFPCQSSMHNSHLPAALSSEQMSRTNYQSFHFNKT

Binder	NMUR1 EC50 [nM], calcium mobilization assay [1]	binding result [2]
C[Ahx]FLFR[Oic]RN[Ahx]C-NH2 (cysteine pairing not given here) [NM9]	1410 nM	
C[Ahx]FLFRPRN[Ahx]C-NH2 (cysteine pairing not given here) [NM8]	186 nM	
[Aib]FLFRPRN-NH2 (N-terminus assumed; SMILES CC(C)C[C@H](NC(=O)[C@H](Cc1ccccc1)NC(=O)C(C)(C)N)C(=O)N[C@@H](Cc1ccccc1)C(=O)N[C@@H](CCCNC(=N)N)C(=O)N1CCC[C@H]1C(=O)N[C@@H](CCCNC(=N)N)C(=O)N[C@@H](CC(N)=O)C(N)=O) [NM2]	0.63 nM	
{Ida^NHPal}-[Aib]FLFRPRN-NH2 [NM4A]	7.41 nM	
Palmitoyl-[Aib]FLFRPRN-NH2 (SMILES CCCCCCCCCCCCCCCC(=O)NC(C)(C)C(=O)N[C@@H](Cc1ccccc1)C(=O)N[C@@H](CC(C)C)C(=O)N[C@@H](Cc1ccccc1)C(=O)N[C@@H](CCCNC(=N)N)C(=O)N1CCC[C@H]1C(=O)N[C@@H](CCCNC(=N)N)C(=O)N[C@@H](CC(N)=O)C(N)=O) [NM3]	331 nM	
{Palmitoyl-dPEG12}-[Aib]FLFRPRN[Aib]-NH2 [NM7]	170 nM	
C[Ahx]FLFR[Tic]RN[Ahx]C-NH2 (linker 1-11 via PalS‑X) [NM16]	3980 nM	
{Nic-Ida^NHPal}-[Aib]FLFRPRN-NH2 [NM4A-Nic]	43.6 nM	
FRVDEEFQSPFASQSRGYFLFRPRN-NH2 [human neuromedin U]	1.12 nM	
Ac-FLFRPRN-NH2 [NM1]	0.58 nM	
C[Ahx]FLFR[Tic]RN[Ahx]C-NH2 (cysteine pairing not given here) [NM10]	3980 nM	
Palmitoyl-[dPEG12][Aib]FLFRPRN-NH2 [NM4]	1.51 nM	binds
[Aib]FLFRPRN[Aib]-NH2 (N-terminus assumed; SMILES CC(C)C[C@H](NC(=O)[C@H](Cc1ccccc1)NC(=O)C(C)(C)N)C(=O)N[C@@H](Cc1ccccc1)C(=O)N[C@@H](CCCNC(=N)N)C(=O)N1CCC[C@H]1C(=O)N[C@@H](CCCNC(=N)N)C(=O)N[C@@H](CC(N)=O)C(=O)NC(C)(C)C(N)=O) [NM5]	58.9 nM	
